The numbers were not newly measured in paper PMC2888830, which cites them from elsewhere.

This data set deals with integrin αIIbβ3 (Homo sapiens) (UniProt P08514).

What is called Kd is the equilibrium constant for the complex coming apart. As to disagregin (from UniProt P36235), the Kd is 40 nM.
